From PMC11535040, “Requirement of Nek2a and cyclin A2 for Wapl-dependent removal of cohesin from prophase chromatin” (The EMBO Journal, 2024) come the findings set out here.

The target of test [1] is T1, Flag-tagged Pds5b (wild type) from cells co-expressing Nek2aΔMR (human, UniProt Q9NTI5 1-1447, phosphoserine at 1177, 1182 and 1209 (by Nek2a)).
T1 construct: Pds5b, human; insert by PCR on human cDNA; their state in this preparation was not measured; source: Hek293T co-expressing eGFP-Nek2aΔMR, taxol-arrested
T1 sequence (looked up): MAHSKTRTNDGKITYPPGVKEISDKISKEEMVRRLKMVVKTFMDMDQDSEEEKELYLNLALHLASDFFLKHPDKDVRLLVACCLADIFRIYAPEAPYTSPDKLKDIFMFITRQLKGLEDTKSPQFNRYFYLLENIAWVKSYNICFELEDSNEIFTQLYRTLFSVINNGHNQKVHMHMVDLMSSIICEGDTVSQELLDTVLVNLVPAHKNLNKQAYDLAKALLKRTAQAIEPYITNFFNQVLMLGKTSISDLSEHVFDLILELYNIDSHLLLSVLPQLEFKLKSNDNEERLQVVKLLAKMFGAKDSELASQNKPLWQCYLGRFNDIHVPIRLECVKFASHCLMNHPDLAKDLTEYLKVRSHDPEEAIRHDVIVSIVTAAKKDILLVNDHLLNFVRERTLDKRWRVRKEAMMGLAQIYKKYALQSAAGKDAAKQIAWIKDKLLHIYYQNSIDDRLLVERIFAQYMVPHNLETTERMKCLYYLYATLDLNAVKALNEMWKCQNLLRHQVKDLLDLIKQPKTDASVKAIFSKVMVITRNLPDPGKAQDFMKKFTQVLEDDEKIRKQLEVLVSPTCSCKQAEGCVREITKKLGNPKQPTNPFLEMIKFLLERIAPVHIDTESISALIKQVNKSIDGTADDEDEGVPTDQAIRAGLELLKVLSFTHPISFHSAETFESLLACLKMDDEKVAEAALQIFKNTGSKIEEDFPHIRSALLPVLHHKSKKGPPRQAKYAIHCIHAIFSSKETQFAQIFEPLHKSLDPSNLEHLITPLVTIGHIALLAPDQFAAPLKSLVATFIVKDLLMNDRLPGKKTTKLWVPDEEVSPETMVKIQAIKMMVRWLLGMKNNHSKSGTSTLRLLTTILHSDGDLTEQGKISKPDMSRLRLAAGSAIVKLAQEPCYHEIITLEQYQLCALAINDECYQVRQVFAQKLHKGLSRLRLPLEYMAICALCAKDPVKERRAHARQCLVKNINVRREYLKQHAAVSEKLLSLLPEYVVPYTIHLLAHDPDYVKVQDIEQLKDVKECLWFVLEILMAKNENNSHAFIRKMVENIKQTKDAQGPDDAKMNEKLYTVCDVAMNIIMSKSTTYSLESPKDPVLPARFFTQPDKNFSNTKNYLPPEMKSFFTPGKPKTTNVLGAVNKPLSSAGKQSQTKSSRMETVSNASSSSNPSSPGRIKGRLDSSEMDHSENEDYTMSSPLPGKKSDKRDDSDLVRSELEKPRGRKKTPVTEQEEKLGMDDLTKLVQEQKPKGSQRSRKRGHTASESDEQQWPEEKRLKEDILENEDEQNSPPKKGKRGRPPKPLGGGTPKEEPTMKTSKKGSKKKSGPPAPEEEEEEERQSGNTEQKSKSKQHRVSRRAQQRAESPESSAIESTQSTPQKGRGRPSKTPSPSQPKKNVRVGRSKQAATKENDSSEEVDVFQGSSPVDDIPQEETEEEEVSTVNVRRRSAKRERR
The test can be described thus: pull-down; Flag-Pds5a or -b affinity-purified on anti-Flag beads from chromatin-free lysates of taxol-arrested Hek293T cells (expressed alone or with Nek2aΔMR and/or Δ86-cyclin A2); beads incubated with a mixture of recombinant Wapl (2 µl) and sororin (0.3 µg) in 15 µl cleavage buffer with kinase inhibitors, 20 min at 37 °C; bound and unbound fractions by immunoblotting. The conditions noted are these: both partners purified. On the technique in general: A western blot detects proteins with antibodies after separation by electrophoresis.

The target of test [2] is T2, Flag-tagged Pds5b (wild type) from cells co-expressing Δ86-cyclin A2 (human, UniProt Q9NTI5 1-1447, phosphoserine at 1161 and 1166 (by Cdk1/2-cyclin A2)).
T2 construct: Pds5b, human; insert by PCR on human cDNA; their state in this preparation was not measured; source: Hek293T co-expressing eGFP-Δ86-cyclin A2, taxol-arrested
T2 sequence (looked up): T1 sequence (looked up)
The description is as above. The conditions noted are these: both partners purified.

B1: recombinant human Wapl (natural protein, UniProt Q7Z5K2 1-1190, looked up)
chain: MTSRFGKTYSRKGGNGSSKFDEVFSNKRTTLSTKWGETTFMAKLGQKRPNFKPDIQEIPKKPKVEEESTGDPFGFDSDDESLPVSSKNLAQVKCSSYSESSEAAQLEEVTSVLEANSKISHVVVEDTVVSDKCFPLEDTLLGKEKSTNRIVEDDASISSCNKLITSDKVENFHEEHEKNSHHIHKNADDSTKKPNAETTVASEIKETNDTWNSQFGKRPESPSEISPIKGSVRTGLFEWDNDFEDIRSEDCILSLDSDPLLEMKDDDFKNRLENLNEAIEEDIVQSVLRPTNCRTYCRANKTKSSQGASNFDKLMDGTSQALAKANSESSKDGLNQAKKGGVSCGTSFRGTVGRTRDYTVLHPSCLSVCNVTIQDTMERSMDEFTASTPADLGEAGRLRKKADIATSKTTTRFRPSNTKSKKDVKLEFFGFEDHETGGDEGGSGSSNYKIKYFGFDDLSESEDDEDDDCQVERKTSKKRTKTAPSPSLQPPPESNDNSQDSQSGTNNAENLDFTEDLPGVPESVKKPINKQGDKSKENTRKIFSGPKRSPTKAVYNARHWNHPDSEELPGPPVVKPQSVTVRLSSKEPNQKDDGVFKAPAPPSKVIKTVTIPTQPYQDIVTALKCRREDKELYTVVQHVKHFNDVVEFGENQEFTDDIEYLLSGLKSTQPLNTRCLSVISLATKCAMPSFRMHLRAHGMVAMVFKTLDDSQHHQNLSLCTAALMYILSRDRLNMDLDRASLDLMIRLLELEQDASSAKLLNEKDMNKIKEKIRRLCETVHNKHLDLENITTGHLAMETLLSLTSKRAGDWFKEELRLLGGLDHIVDKVKECVDHLSRDEDEEKLVASLWGAERCLRVLESVTVHNPENQSYLIAYKDSQLIVSSAKALQHCEELIQQYNRAEDSICLADSKPLPHQNVTNHVGKAVEDCMRAIIGVLLNLTNDNEWGSTKTGEQDGLIGTALNCVLQVPKYLPQEQRFDIRVLGLGLLINLVEYSARNRHCLVNMETSCSFDSSICSGEGDDSLRIGGQVHAVQALVQLFLERERAAQLAESKTDELIKDAPTTQHDKSGEWQETSGEIQWVSTEKTDGTEEKHKKEEEDEELDLNKALQHAGKHMEDCIVASYTALLLGCLCQESPINVTTVREYLPEGDFSIMTEMLKKFLSFMNLTCAVGTTGQKSISRVIEYLEHC
notes: Wapl, human; insert by PCR on human cDNA; Isolated from mitotically arrested cells; also called GFP-SUMOstar-Wapl; source: Hek293T, transiently transfected, taxol-arrested; not shown: GFP, N-terminal, cleaved; SUMOstar, N-terminal, cleaved
As to B1, the binding result in test [1] and in test [2] was “binds” throughout.
